This data set concerns histone H4 methylated at arginine 3.

For “commercially available skeletal muscle PAD”, the “Western blot staining with antibodies to methylated arginine 3 H4 after PAD treatment” value is “A complete loss of staining with antibodies to this modification was observed following PAD treatment”.

(Values after patent US20060078953.)
